Our source for the Kd, koff and kon values is publication PMC4810480.

This test addresses human CD26 (residues 39 to 766) (human) (UniProt P27487). Nature of the test: SPR. (Surface plasmon resonance follows binding to a sensor surface in real time, without labels.)
UniProt P27487, sequence (P27487 39-766): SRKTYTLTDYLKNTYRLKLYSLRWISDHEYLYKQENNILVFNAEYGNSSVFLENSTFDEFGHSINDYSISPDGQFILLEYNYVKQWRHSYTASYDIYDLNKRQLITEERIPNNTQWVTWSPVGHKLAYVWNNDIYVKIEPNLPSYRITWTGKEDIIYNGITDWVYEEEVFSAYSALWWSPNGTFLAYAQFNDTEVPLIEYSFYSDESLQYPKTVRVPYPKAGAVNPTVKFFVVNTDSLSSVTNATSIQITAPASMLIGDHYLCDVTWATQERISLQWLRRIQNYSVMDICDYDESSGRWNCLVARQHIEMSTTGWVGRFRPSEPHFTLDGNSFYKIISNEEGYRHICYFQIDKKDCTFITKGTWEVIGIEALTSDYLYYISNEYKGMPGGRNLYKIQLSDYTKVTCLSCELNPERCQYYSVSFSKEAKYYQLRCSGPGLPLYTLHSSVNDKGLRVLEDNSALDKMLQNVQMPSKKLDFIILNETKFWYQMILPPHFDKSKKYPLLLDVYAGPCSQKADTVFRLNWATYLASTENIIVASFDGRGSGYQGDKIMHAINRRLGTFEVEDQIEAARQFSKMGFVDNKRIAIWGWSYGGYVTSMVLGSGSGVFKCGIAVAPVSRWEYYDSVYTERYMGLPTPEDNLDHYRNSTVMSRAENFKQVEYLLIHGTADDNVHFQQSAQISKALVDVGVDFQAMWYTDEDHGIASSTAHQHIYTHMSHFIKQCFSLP

“MERS-CoV spike receptor-binding domain (RBD), wild type (from UniProt K9N5Q8 367-606) (domain or fragment)”: the dissociation constant Kd came to 64.5 nM, the koff is 0.000936 s⁻¹ and the on-rate (kon) came out at 14500 M⁻¹ s⁻¹.

What is called Kd is the concentration at which binding is half-saturated. Lower therefore signals higher affinity. The koff is a measure of how fast the partners let go of each other. Low values mean a long-lived complex, high ones a short-lived complex. The term kon denotes the rate constant with which the complex forms.
